Results from patent US10143747B2, “Breast cancer therapeutics” (IMBA—INSTITUT FÜR MOLEKULARE BIOTECHNOLOGIE GMBH, priority 2010, dated 2018).

Legend:
[1] = test system: NFκB pathway / CyclinD1; test: NFκB pathway activation and CyclinD1 expression in mammary epithelial cells after MPA in vivo; parameters: species or system mouse; settings: three day MPA treatment, control females
Description: a, Activation of the NFκB pathway and CyclinD1 expression by MPA. Nulliparous RANK^Δmam and littermate control females were s.c. implanted with slow-release MPA pellets or treated with sham surgery. a, In situ immunostaining to detect phosphorylated (P) IκBα in mammary epithelial cells of RANK^Δmam and littermate control females after 3 d MPA treatment. b, Western blot analysis of CyclinD1 and RANKL in isolated mammary epithelial cells from RANK^Δmam and littermate control females after 3 d MPA treatment. Recombinant, murine sRANKL protein is shown for molecular size comparison. β-actin is shown as a loading control.
The human epithelial breast tumor cell line SKBR3 and primary non-transformed mouse mammary epithelial cells were left untreated or stimulated with recombinant murine RANKL^ref. 9. Adenocarcinomas were isolated from control and mutant mice and total protein lysates prepared. Western blotting was carried out using standard protocols. Briefly, blots were blocked with 5% BSA in 1×TBS 0.1% Tween-20 (TBST) for 1 hour and incubated with primary antibody overnight at 4° C. (diluted in TBST according to the manufactures protocol). […]

[2] = test system: primary mouse mammary gland epithelial cells (MECs); test: Western blotting of RANKL-stimulated primary mouse mammary gland epithelial cells; type: cell-based; settings: RANKL 1 μg/ml
Experimental: (§1) a, Western blotting for phosphorylated (P) IKKα, total IKKα, phosphorylated (P) p65 NFκB, total p65 NFκB, phosphorylated (P) IκBα, and total IκBα in isolated primary mouse mammary gland epithelial cells (MECs) in response to RANKL stimulation (1 μg/ml). β-actin is shown as loading control. b, Western blotting for IKKα, IKKβ, IKKγ, phosphorylated (P) p65 NFκB, total p65 NFκB, phosphorylated (P) IκBα, and total IκBα in pooled late stage mammary adenocarconimas (n=4 for each lane) that developed in control, RANK^Δmam and IKKΔ^Δmam females. β-actin is shown as loading control c, Expression of RANK, CyclinD1, and p21 mRNA in late stage mammary adenocacinomas that developed in control, RANK^Δmam, and IKKα^Δmam females. Expression was determined by qRT-PCR. Data are mean values+/−sem. n=4 per group. d, Soft-Agar Colony Formation Assay. Growth of human SKBR3 breast cancer cells in soft agar in response to stimulation with RANKL (1 μg/ml) or EGF (100 ng/ml). Anchorage-independent, macroscopic colonies formed after 18 days in culture with RANKL, which was prevented by the decoy receptor OPG (1 μg/ml). […] Apoptosis was detected by immunostaining for active Caspase 3. f, Apoptotic nuclei of epithelial cells (arrows) are shown for representative mammary gland sections. Magnifications×40. g, Quantification of mammary epithelial apoptosis. A minimum of 5000 nuclei was counted for each mouse. […]

[3] = test system: human SKBR3 breast cancer cells; test: Western blotting of RANKL-stimulated SKBR3 cells; type: cell-based; settings: RANKL 1 μg/ml
Experimental: a, Western blotting for phosphorylated (P) p65 NFκB, total p65 NFκB, phosphorylated (P) IκBα, total IκBα, phosphorylated (P) ERK1/2, total ERK1/2, phosphorylated (P) p38-MAPK, and p38-MAPK in human SKBR3 breast cancer cells in response to RANKL stimulation (1 μg/ml). Data are representative of 3 experiments. b, Growth curve of SKBR3 breast cancer cells cultured in normal growth medium (control, DMEM supplemented with 10% FCS) or in the presence of RANKL (1 μg/ml). Cell numbers were determined by counting live cells (trypan blue-exclusion) over 3 days. c, Onset of palpable mammary tumors in NFATc1^Δmam (n=10) and age matched littermate control (n=16) females treated with MPA pellets and DMBA. Data are shown as percentage of tumor free mice after the last DMBA challenge. No significant difference was found. d, Quantification of NFATc1 mRNA expression in purified mammary epithelial cells (MECs) and MPA-driven mammary tumors from NFATc1^Δmam and littermate control females. mRNA was determined by qRT-PCR. Data are shown as fold change compared to control (+/−sem). n=5 Per group. *P<0.05 (Student's t-test).
The human epithelial breast tumor cell line SKBR3 and primary non-transformed mouse mammary epithelial cells were left untreated or stimulated with recombinant murine RANKL^ref. 9. Adenocarcinomas were isolated from control and mutant mice and total protein lysates prepared. […]

[4] = test system: human SKBR3 breast cancer cells; test: Soft-Agar Colony Formation Assay (anchorage-independent growth); type: cell-based; settings: RANKL 1 μg/ml
Experimental: as §1

Molecule	CyclinD1 protein expression in mammary epithelial cells [1]	nuclear phosphorylated IκBα in mammary epithelial cells [1]	p65 NFκB and IκBα phosphorylation [2]	phosphorylation of p38-MAPKs and ERK [2]	NFκB, p38-MAPKs and ERK activation [3]	growth of SKBR3 cells in soft agar [4]
CC(=O)O[C@]1(C(C)=O)CC[C@H]2[C@@H]3C[C@H](C)C4=CC(=O)CC[C@]4(C)[C@H]3CC[C@@]21C [MPA, medroxyprogesterone acetate]	induction of CyclinD1 protein expression	nuclear accumulation of phosphorylated IκBα				
RANKL: recombinant RANKL protein, ligand of RANK, used as stimulus (1 μg/ml or 1 μg i.p.) (protein, UniProt O35235 139-316, looked up) Tumor necrosis factor ligand …: FSGAPAMMEGSWLDVAQRGKPEAQPFAHLTINAASIPSGSHKVTLSSWYHDRGWAKISNMTLSNGKLRVNQDGFYYLYANICFRHHETSGSVPTDYLQLMVYVVKTSIKIPSSHNLMKGGSTKNWSGNSEFHFYSINVGGFFKLRAGEEISIQVSNPSLLDPDQDATYFGAFKVQDID			resulted in p65 NFκB and IκBα phosphorylation	triggered phosphorylation of p38-MAPKs and ERK	induced NFκB, p38-MAPKs and ERK activation	induced growth of SKBR3 cells in soft agar
